T1: IL10Rα and IL2Rγ on human primary cells (CD8 T cells, CD4 T cells, monocytes) (human) (UniProt Q13651)
T1 sequence (looked up) 1: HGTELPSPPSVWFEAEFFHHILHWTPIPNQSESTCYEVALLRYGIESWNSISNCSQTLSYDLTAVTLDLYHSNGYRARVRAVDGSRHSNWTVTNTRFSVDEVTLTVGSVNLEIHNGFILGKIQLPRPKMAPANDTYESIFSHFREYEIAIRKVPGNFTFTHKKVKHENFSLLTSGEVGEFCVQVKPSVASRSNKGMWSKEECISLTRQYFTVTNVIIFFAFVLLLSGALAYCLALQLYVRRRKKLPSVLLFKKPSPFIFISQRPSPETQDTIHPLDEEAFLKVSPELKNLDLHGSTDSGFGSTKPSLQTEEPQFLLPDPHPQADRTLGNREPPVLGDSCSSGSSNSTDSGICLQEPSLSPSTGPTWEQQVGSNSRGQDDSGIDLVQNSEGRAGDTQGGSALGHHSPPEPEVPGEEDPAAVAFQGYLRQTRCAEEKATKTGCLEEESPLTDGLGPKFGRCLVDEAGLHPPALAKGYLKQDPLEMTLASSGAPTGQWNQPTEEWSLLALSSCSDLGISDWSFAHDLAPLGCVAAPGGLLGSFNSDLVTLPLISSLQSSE
T1 sequence (looked up) 2: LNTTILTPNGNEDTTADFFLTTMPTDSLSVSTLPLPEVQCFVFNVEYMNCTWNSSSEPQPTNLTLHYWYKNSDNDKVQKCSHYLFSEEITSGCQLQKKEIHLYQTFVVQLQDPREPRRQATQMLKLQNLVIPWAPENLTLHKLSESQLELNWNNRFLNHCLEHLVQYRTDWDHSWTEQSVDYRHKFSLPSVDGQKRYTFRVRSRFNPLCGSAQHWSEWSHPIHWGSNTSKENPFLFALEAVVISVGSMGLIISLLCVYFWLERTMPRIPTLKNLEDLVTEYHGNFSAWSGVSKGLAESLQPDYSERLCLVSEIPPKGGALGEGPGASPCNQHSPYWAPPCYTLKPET


Biological target: T1, IL10Rα and IL2Rγ on human primary cells (CD8 T cells, CD4 T cells, monocytes) (human)
Experiment: cell-based or functional assay

Row | Binder | pSTAT3 (MFI) in CD4 T cells at 0.0001 µM [MFI] | pSTAT3 (MFI) in CD4 T cells at 0.01 µM [MFI] | pSTAT3 (MFI) in CD4 T cells at 0.1 µM [MFI] | pSTAT3 (MFI) in CD4 T cells at 1 µM [MFI] | pSTAT3 (MFI) in CD4 T cells at 10 µM [MFI] | pSTAT3 (MFI) in CD4 T cells at 100 µM [MFI] | pSTAT3 (MFI) in CD8 T cells at 0.0001 µM [MFI] | pSTAT3 (MFI) in CD8 T cells at 0.001 µM [MFI] | pSTAT3 (MFI) in CD8 T cells at 0.01 µM [MFI] | pSTAT3 (MFI) in CD8 T cells at 0.1 µM [MFI] | pSTAT3 (MFI) in CD8 T cells at 1 µM [MFI] | pSTAT3 (MFI) in CD8 T cells at 10 µM [MFI] | pSTAT3 (MFI) in CD8 T cells at 100 µM [MFI] | pSTAT3 (MFI) in monocytes at 0.0001 µM [MFI] | pSTAT3 (MFI) in monocytes at 0.001 µM [MFI] | pSTAT3 (MFI) in monocytes at 0.01 µM [MFI] | pSTAT3 (MFI) in monocytes at 0.1 µM [MFI] | pSTAT3 (MFI) in monocytes at 1 µM [MFI] | pSTAT3 (MFI) in monocytes at 10 µM [MFI] | pSTAT3 (MFI) in monocytes at 100 µM [MFI] | other results
1 | hIL10Ra_VHH14-hIL2Rg_VHH19, linker GGGSGGGS, tag his (bispecific antibody, not shown: small tags and cut ends) QVQLQESGGGSVQAGGSLRLSCGASGYTYSSYCMGWFRQVPGKEREGVAVIDSDGSTSYADSVKGRFTISKDNGKNTLYLQMNSLKPEDTAMYYCAADLGHYRPPCGVLYLGMDYWGKGTQVTVSSGGGSGGGSQVQLQESGGGSVQAGGSLRLSCTASGFTFDDREMNWYRQAPGNECELVSTISSDGSTYYADSVKGRFTISQDNAKNTVYLQMDSVKPEDTAVYYCAADFMIAIQAPGAGCWGQGTQVTVSS | 10700 | 9550 | 11300 | 12700 | 13200 | 11600 | 7060 | 7520 | 6330 | 7070 | 7870 | 8430 | 7970 | 4670 | 4820 | 4360 | 4420 | 4760 | 4880 | 4620 | pSTAT3 (MFI) in CD4 T cells at 0.0013 µM: 12000 MFI
2 | hIL10Ra_VHH14-hIL2Rg_VHH19, linker …, tag his (bispecific antibody, not shown: small tags and cut ends) QVQLQESGGGSVQAGGSLRLSCGASGYTYSSYCMGWFRQVPGKEREGVAVIDSDGSTSYADSVKGRFTISKDNGKNTLYLQMNSLKPEDTAMYYCAADLGHYRPPCGVLYLGMDYWGKGTQVTVSSGGSGGSGGSGQVQLQESGGGSVQAGGSLRLSCTASGFTFDDREMNWYRQAPGNECELVSTISSDGSTYYADSVKGRFTISQDNAKNTVYLQMDSVKPEDTAVYYCAADFMIAIQAPGAGCWGQGTQVTVSS | 12800 | 11100 | 10200 | 9970 | 11400 | 10300 | 7840 | 7520 | 6920 | 6780 | 6480 | 7330 | 6930 | 4230 | 4710 | 4700 | 4690 | 4620 | 4550 | 4860 | pSTAT3 (MFI) in CD4 T cells at 0.001 µM: 11800 MFI

Reference: patent publication US20250163162A1
